The target in assay [1] is glutamine synthetase type I-α from Methanothermococcus thermolithotrophicus (Methanothermococcus thermolithotrophicus (endogenous, DSM 2095)). Briefly: native gel or EMSA.
For assay [2] the target is unchanged. As to the kind of experiment: crystal structure.
Assay [3] concerns the target glutamine synthetase type I-α from Methermicoccus shengliensis (Methermicoccus shengliensis (endogenous, ZC-1, DSM 18856)). Briefly: native gel or EMSA.
The target is the same in assay [4]. As to the kind of experiment: crystal structure.

The results in this text go back to article doi:10.1101/2023.04.07.535877.

As usually defined, the stoichiometry N is the number of molecules, sites or subunits per partner or assembly. With “glutamine synthetase type I-α from Methanothermococcus thermolithotrophicus (enzyme)”, the stoichiometry N in assay [1] and in assay [2] was 12 throughout.

Turning to “glutamine synthetase type I-α from Methermicoccus shengliensis (enzyme)”, the stoichiometry N in assay [3] and in assay [4] was 12 throughout.
